According to US20190321483A1 (Novartis, published 2019):

T1: Rat cKIT D1-5, C-terminal mFc (rat)
T1 construct: also called rat cKIT-mFc
T1 chain: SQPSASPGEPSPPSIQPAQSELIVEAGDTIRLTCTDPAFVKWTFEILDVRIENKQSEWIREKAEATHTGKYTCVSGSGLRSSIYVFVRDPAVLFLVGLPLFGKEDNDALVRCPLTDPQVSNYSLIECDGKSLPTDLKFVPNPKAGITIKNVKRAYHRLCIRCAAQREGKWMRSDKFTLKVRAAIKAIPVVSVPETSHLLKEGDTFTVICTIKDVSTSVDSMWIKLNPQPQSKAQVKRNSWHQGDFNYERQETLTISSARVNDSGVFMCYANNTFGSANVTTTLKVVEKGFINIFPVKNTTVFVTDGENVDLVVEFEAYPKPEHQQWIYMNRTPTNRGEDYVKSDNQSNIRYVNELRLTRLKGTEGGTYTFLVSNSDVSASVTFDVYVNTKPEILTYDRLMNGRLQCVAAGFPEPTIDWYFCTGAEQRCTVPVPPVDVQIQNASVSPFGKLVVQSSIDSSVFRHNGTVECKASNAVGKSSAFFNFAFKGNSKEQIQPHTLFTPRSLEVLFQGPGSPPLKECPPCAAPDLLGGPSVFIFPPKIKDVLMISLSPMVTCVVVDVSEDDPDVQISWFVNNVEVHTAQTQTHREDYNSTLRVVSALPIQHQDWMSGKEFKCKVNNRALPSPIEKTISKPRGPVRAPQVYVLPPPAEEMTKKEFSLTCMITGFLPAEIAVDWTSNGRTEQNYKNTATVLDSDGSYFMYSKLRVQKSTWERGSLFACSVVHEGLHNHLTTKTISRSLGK

T2: Cynomolgus monkey cKIT D1-5 (cynomolgus monkey, UniProt P10721 26-524 (human entry))
T2 construct: also called cyno cKIT ECD
T2 chain: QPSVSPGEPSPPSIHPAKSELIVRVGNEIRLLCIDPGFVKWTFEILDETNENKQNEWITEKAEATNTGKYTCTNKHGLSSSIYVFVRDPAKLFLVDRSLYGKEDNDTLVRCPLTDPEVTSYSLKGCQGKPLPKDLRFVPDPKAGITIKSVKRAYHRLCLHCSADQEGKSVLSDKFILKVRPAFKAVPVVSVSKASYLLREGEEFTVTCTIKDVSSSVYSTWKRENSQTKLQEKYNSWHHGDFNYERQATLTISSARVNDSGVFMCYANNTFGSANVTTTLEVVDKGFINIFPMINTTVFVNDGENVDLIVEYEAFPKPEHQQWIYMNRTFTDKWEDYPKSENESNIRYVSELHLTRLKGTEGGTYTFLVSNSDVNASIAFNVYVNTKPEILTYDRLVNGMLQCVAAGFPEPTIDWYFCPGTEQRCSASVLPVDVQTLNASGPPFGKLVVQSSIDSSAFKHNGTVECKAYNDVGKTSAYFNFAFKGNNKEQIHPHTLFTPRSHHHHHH

T3: Mouse cKIT ECD, C-terminal 6x His (Sino Biological Inc, Catalog number 50530-M08H) (mouse, UniProt P05532 25-527)
T3 construct: extracellular domain
T3 sequence: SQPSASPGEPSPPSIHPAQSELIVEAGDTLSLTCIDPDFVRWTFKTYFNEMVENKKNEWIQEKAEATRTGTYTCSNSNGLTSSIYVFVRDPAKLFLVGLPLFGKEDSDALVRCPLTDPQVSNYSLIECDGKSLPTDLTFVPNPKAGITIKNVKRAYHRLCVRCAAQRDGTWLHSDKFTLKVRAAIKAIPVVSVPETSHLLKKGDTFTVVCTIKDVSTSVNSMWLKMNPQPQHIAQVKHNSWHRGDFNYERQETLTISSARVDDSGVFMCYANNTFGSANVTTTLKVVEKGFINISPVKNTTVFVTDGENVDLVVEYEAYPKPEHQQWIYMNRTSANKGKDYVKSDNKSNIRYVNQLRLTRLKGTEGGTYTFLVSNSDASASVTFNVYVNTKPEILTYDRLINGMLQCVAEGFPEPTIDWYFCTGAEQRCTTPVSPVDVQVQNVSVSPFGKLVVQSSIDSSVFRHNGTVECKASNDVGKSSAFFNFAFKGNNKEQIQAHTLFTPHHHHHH

B1: Anti-cKIT Ab4 (antibody, human IgG1, lambda, V domains shown)
VH: QVQLQQSGPGLVKPSQTLSLTCAISGDSVSTNSAAWNWIRQSPSRGLEWLGRIYYRSQWLNDYAVSVKSRITINPDTSKNQFSLQLNSVTPEDTAVYYCARQLTYPYTVYHKALDVWGQGTLVTVSS
VL: DIELTQPPSVSVSPGQTASITCSGDNLGDQYVSWYQQKPGQAPVLVIYDDTDRPSGIPERFSGSNSGNTATLTISGTQAEDEADYYCQSTDSKSVVFGGGTKLTVLG
notes: Full-length human IgG1, lambda light chain; also called IgG control for J4
B2: Anti-cKIT Ab5 (antibody, human IgG1, lambda, V domains shown)
VH: QVQLVQSGAEVKKPGESLKISCKGSGYSFTNYWIAWVRQMPGKGLEWMGIIYPSNSYTLYSPSFQGQVTISADKSISTAYLQWSSLKASDTAMYYCARVPPGGSISYPAFDHWGQGTLVTVSS
VL: DIELTQPPSVSVSPGQTASITCSGDNIGSIYASWYQQKPGQAPVLVIYRDNKRPSGIPERFSGSNSGNTATLTISGTQAEDEADYYCSVTDMEQHSVFGGGTKLTVLG
notes: Full-length human IgG1, lambda light chain
B3: Anti-cKIT Ab1 (antibody, human IgG1, kappa, V domains shown)
VH: QVQLVQSGAEVKKPGSSVKVSCKASGGTFSSYAISWVRQAPGQGLEWMGVIFPAEGAPGYAQKFQGRVTITADESTSTAYMELSSLRSEDTAVYYCARGGYISDFDVWGQGTLVTVSS
VL: DIQMTQSPSSLSASVGDRVTITCRASQSISNYLAWYQQKPGKAPKLLIYDASSLQSGVPSRFSGSGSGTDFTLTISSLQPEDFATYYCQQYYYESITFGQGTKVEIKR
notes: Full-length human IgG1, kappa light chain; also called IgG control for J1
B4: Anti-cKIT Ab2 (antibody, human IgG1, kappa, V domains shown)
VH: QVQLVQSGAEVKKPGSSVKVSCKASGGTFSSHALSWVRQAPGQGLEWMGGIIPSFGTADYAQKFQGRVTITADESTSTAYMELSSLRSEDTAVYYCARGLYDFDYWGQGTLVTVSS
VL: DIQMTQSPSSLSASVGDRVTITCRASQDISQDLAWYQQKPGKAPKLLIYDASSLQSGVPSRFSGSGSGTDFTLTISSLQPEDFAVYYCQQYYYLPSTFGQGTKVEIKR
notes: Full-length human IgG1, kappa light chain; also called IgG control for J2

Key:
[1] = target: T1, Rat cKIT D1-5, C-terminal mFc; experiment: cross reactivity, Table 6 (Example 4: Biacore SPR, antibody captured, cKIT ECD in solution)
[2] = target: T4, Human cKIT D1-5 (extracellular domain) (human, UniProt P10721 26-524); experiment: 'in SET' by the column head; Example 4 describes Biacore SPR (antibody captured by anti-human Fc, cKIT ECD in solution)
T4 construct: also called human cKIT ECD; full-length cKIT ECD
T4 sequence (P10721 other isoform, or with tags, fused parts or gaps): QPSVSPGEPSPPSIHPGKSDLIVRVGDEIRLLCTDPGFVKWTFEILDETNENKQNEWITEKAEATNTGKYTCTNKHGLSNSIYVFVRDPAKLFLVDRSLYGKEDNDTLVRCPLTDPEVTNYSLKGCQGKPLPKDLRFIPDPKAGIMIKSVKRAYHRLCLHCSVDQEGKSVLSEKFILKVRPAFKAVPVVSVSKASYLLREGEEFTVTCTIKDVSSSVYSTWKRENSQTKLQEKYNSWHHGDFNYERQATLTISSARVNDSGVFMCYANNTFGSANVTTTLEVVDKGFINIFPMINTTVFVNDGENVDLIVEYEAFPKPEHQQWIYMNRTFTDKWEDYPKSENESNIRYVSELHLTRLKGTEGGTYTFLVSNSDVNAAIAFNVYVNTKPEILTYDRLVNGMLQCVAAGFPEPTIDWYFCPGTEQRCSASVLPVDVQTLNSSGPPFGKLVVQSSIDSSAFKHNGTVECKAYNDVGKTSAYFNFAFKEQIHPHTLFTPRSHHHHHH

[3] = target: T2, Cynomolgus monkey cKIT D1-5; experiment: as above
[4] = target: T3, Mouse cKIT ECD, C-terminal 6x His (Sino …); experiment: cross reactivity, Table 6 (Example 4: Biacore SPR, antibody captured by anti-human Fc, cKIT ECD in solution)
[5] = target: T1, Rat cKIT D1-5, C-terminal mFc; experiment: as above

Row | Binder | binding result [1] | Kd [2] [nM] | Kd [3] [nM] | binding result [4] | binding result [5]
1 | B1 | binds | 2.4 | 0.14 | – | –
2 | B2 | binds | 0.11 | 0.18 | – | –
3 | B3 | – | 0.094 | 0.17 | no binding | no binding
4 | B4 | – | 0.007 | 0.01 | no binding | no binding
